# Data from the Human Domainome abundance scans (Beltran et al. 2025).
# ± gives the uncertainty stated by the source.
# B1: Protein S100-G, residues 1 to 79; numbered along this chain, P02633 (parent)
# chain: MSAKKSPEELKGIFEKYAAKEGDPNQLSKEELKLLLQTEFPSLLKGPSTLDELFEELDKNGDGEVSFEEFQVLVKKISQ
# Variants of: B1
# Assay: abundance fitness (aPCA) (normalised: wild type 0, dead -1); higher = more abundant; growth selection in yeast, the domain comes from the species named
# Details: Bos taurus
row,Variant,abundance fitness
1,MSAKKSPEELKGIFEKYAAKEGDPNQLSKEELKLLLQTEFPSLLKGPSALDELFEELDKNGDGEVSFEEFQVLVKKISQ,0.007 ± 0.074
2,MSAKKSPEELKGIFEKYAAKEGDPNQLSKEELKLLLQTEFPSLLKGPSFLDELFEELDKNGDGEVSFEEFQVLVKKISQ,0.032 ± 0.078
3,MSAKKSPEELKGIFEKYAAKEGDPNQLSKEELKLLLQTEFPSLLKGPSDLDELFEELDKNGDGEVSFEEFQVLVKKISQ,-0.08 ± 0.095
4,MSAKKSPEELKGIFEKYAAKEGDPNQLSKEELKLLLQTEFPSLLKGPSGLDELFEELDKNGDGEVSFEEFQVLVKKISQ,-0.043 ± 0.087
5,MSAKKSPEELKGIFEKYAAKEGDPNQLSKEELKLLLQTEFPSLLKGPSELDELFEELDKNGDGEVSFEEFQVLVKKISQ,-0.026 ± 0.095
6,MSAKKSPEELKGIFEKYAAKEGDPNQLSKEELKLLLQTEFPSLLKGPSCLDELFEELDKNGDGEVSFEEFQVLVKKISQ,-0.12 ± 0.091
7,MSAKKSPEELKGIFEKYAAKEGDPNQLSKEELKLLLQTEFPSLLKGPVTLDELFEELDKNGDGEVSFEEFQVLVKKISQ,-0.032 ± 0.067
8,MSAKKSPEELKGIFEKYAAKEGDPNQLSKEELKLLLQTEFPSLLKGPFTLDELFEELDKNGDGEVSFEEFQVLVKKISQ,-0.062 ± 0.072
9,MSAKKSPEELKGIFEKYAAKEGDPNQLSKEELKLLLQTEFPSLLKGPITLDELFEELDKNGDGEVSFEEFQVLVKKISQ,0.005 ± 0.075
10,MSAKKSPEELKGIFEKYAAKEGDPNQLSKEELKLLLQTEFPSLLKGPDTLDELFEELDKNGDGEVSFEEFQVLVKKISQ,-0.138 ± 0.086
11,MSAKKSPEELKGIFEKYAAKEGDPNQLSKEELKLLLQTEFPSLLKGPTTLDELFEELDKNGDGEVSFEEFQVLVKKISQ,-0.029 ± 0.064
12,MSAKKSPEELKGIFEKYAAKEGDPNQLSKEELKLLLQTEFPSLLKGPPTLDELFEELDKNGDGEVSFEEFQVLVKKISQ,0.015 ± 0.067
13,MSAKKSPEELKGIFEKYAAKEGDPNQLSKEELKLLLQTEFPSLLKGPHTLDELFEELDKNGDGEVSFEEFQVLVKKISQ,-0.023 ± 0.075
14,MSAKKSPEELKGIFEKYAAKEGDPNQLSKEELKLLLQTEFPSLLKGPETLDELFEELDKNGDGEVSFEEFQVLVKKISQ,0.042 ± 0.093
15,MSAKKSPEELKGIFEKYAAKEGDPNQLSKEELKLLLQTEFPSLLKGPCTLDELFEELDKNGDGEVSFEEFQVLVKKISQ,-0.156 ± 0.08
16,MSAKKSPEELKGIFEKYAAKEGDPNQLSKEELKLLLQTEFPSLLKGPMTLDELFEELDKNGDGEVSFEEFQVLVKKISQ,-0.056 ± 0.076
17,MSAKKSPEELKGIFEKYAAKEGDPNQLSKEELKLLLQTEFPSLLKGPYTLDELFEELDKNGDGEVSFEEFQVLVKKISQ,0.016 ± 0.07
18,MSAKKSPEELKGIFEKYAAKEGDPNQLSKEELKLLLQTEFPSLLKGPQTLDELFEELDKNGDGEVSFEEFQVLVKKISQ,0.086 ± 0.075

row,Variant,abundance fitness
1,MSAKKSPEELKGIFEKYAAKEGDPNQLSKEELKLLLQTEFPSLLKGPLTLDELFEELDKNGDGEVSFEEFQVLVKKISQ,-0.01 ± 0.056
2,MSAKKSPEELKGIFEKYAAKEGDPNQLSKEELKLLLQTEFPSLLKGPKTLDELFEELDKNGDGEVSFEEFQVLVKKISQ,0.055 ± 0.073
3,MSAKKSPEELKGIFEKYAAKEGDPNQLSKEELKLLLQTEFPSLLKGPRTLDELFEELDKNGDGEVSFEEFQVLVKKISQ,0.038 ± 0.064
4,MSAKKSPEELKGIFEKYAAKEGDPNQLSKEELKLLLQTEFPSLLKGPGTLDELFEELDKNGDGEVSFEEFQVLVKKISQ,-0.042 ± 0.07
5,MSAKKSPEELKGIFEKYAAKEGDPNQLSKEELKLLLQTEFPSLLKGPWTLDELFEELDKNGDGEVSFEEFQVLVKKISQ,-0.048 ± 0.083
6,MSAKKSPEELKGIFEKYAAKEGDPNQLSKEELKLLLQTEFPSLLKGPATLDELFEELDKNGDGEVSFEEFQVLVKKISQ,0 ± 0.071
7,MSAKKSPEELKGIFEKYAAKEGDPNQLSKEELKLLLQTEFPSLLKGGSTLDELFEELDKNGDGEVSFEEFQVLVKKISQ,-0.023 ± 0.1
8,MSAKKSPEELKGIFEKYAAKEGDPNQLSKEELKLLLQTEFPSLLKGWSTLDELFEELDKNGDGEVSFEEFQVLVKKISQ,-0.01 ± 0.12
9,MSAKKSPEELKGIFEKYAAKEGDPNQLSKEELKLLLQTEFPSLLKGRSTLDELFEELDKNGDGEVSFEEFQVLVKKISQ,-0.05 ± 0.081
10,MSAKKSPEELKGIFEKYAAKEGDPNQLSKEELKLLLQTEFPSLLKGQSTLDELFEELDKNGDGEVSFEEFQVLVKKISQ,0.051 ± 0.092
11,MSAKKSPEELKGIFEKYAAKEGDPNQLSKEELKLLLQTEFPSLLKGYSTLDELFEELDKNGDGEVSFEEFQVLVKKISQ,0.042 ± 0.09
12,MSAKKSPEELKGIFEKYAAKEGDPNQLSKEELKLLLQTEFPSLLKGVSTLDELFEELDKNGDGEVSFEEFQVLVKKISQ,0.082 ± 0.084
13,MSAKKSPEELKGIFEKYAAKEGDPNQLSKEELKLLLQTEFPSLLKGKSTLDELFEELDKNGDGEVSFEEFQVLVKKISQ,-0.09 ± 0.089
14,MSAKKSPEELKGIFEKYAAKEGDPNQLSKEELKLLLQTEFPSLLKGTSTLDELFEELDKNGDGEVSFEEFQVLVKKISQ,0.085 ± 0.078
15,MSAKKSPEELKGIFEKYAAKEGDPNQLSKEELKLLLQTEFPSLLKGLSTLDELFEELDKNGDGEVSFEEFQVLVKKISQ,-0.027 ± 0.074
16,MSAKKSPEELKGIFEKYAAKEGDPNQLSKEELKLLLQTEFPSLLKGSSTLDELFEELDKNGDGEVSFEEFQVLVKKISQ,0.073 ± 0.077
17,MSAKKSPEELKGIFEKYAAKEGDPNQLSKEELKLLLQTEFPSLLKGMSTLDELFEELDKNGDGEVSFEEFQVLVKKISQ,-0.004 ± 0.091
